From PMC12292835, “Amylin Receptor 1 Mutagenesis Revealed a Potential Role of Calcitonin Serine 29 in Receptor Interaction” (Biomedicines, 2025)

B1: amylin receptor 1 extracellular domain, wild type (hRAMP1.24–111-(GSA)3-hCTR.34–141-H6) (receptor)
chain: TTACQEANYGALLRELCLTQFQVDMEAVGETLWCDWGRTIRSYRELADCTWHMAEKLGCFWPNAEVDRFFLAVHGRYFRSCPISGRAVGSAGSAGSAIEPKPFLYVVGRKKMMDAQYKCYDRMQQLPAYQGEGPYCNRTWDGWLCWDDTPAGVLSYQFCPDYFPDFDPSEKVTKYCDEKGVWFKHPENNRTWSNYTMCNAFTPEK
modifications: N-glycosylated (sites not given)
B2: amylin receptor 1 extracellular domain with calcitonin receptor D97A (hRAMP1.24–111-(GSA)3-hCTR.34–141.D97A-H6) (receptor)
chain: TTACQEANYGALLRELCLTQFQVDMEAVGETLWCDWGRTIRSYRELADCTWHMAEKLGCFWPNAEVDRFFLAVHGRYFRSCPISGRAVGSAGSAGSAIEPKPFLYVVGRKKMMDAQYKCYDRMQQLPAYQGEGPYCNRTWDGWLCWDDTPAGVLSYQFCPAYFPDFDPSEKVTKYCDEKGVWFKHPENNRTWSNYTMCNAFTPEK
modifications: N-glycosylated (sites not given)
B3: amylin receptor 1 extracellular domain with calcitonin receptor N124A (hRAMP1.24–111-(GSA)3-hCTR.34–141.N124A-H6) (receptor)
chain: TTACQEANYGALLRELCLTQFQVDMEAVGETLWCDWGRTIRSYRELADCTWHMAEKLGCFWPNAEVDRFFLAVHGRYFRSCPISGRAVGSAGSAGSAIEPKPFLYVVGRKKMMDAQYKCYDRMQQLPAYQGEGPYCNRTWDGWLCWDDTPAGVLSYQFCPDYFPDFDPSEKVTKYCDEKGVWFKHPEANRTWSNYTMCNAFTPEK
modifications: N-glycosylated (sites not given)
B4: amylin receptor 1 extracellular domain with calcitonin receptor E123D (hRAMP1.24–111-(GSA)3-hCTR.34–141.E123D-H6) (receptor)
chain: TTACQEANYGALLRELCLTQFQVDMEAVGETLWCDWGRTIRSYRELADCTWHMAEKLGCFWPNAEVDRFFLAVHGRYFRSCPISGRAVGSAGSAGSAIEPKPFLYVVGRKKMMDAQYKCYDRMQQLPAYQGEGPYCNRTWDGWLCWDDTPAGVLSYQFCPDYFPDFDPSEKVTKYCDEKGVWFKHPDNNRTWSNYTMCNAFTPEK
modifications: N-glycosylated (sites not given)
B5: amylin receptor 1 extracellular domain with calcitonin receptor D97E (hRAMP1.24–111-(GSA)3-hCTR.34–141.D97E-H6) (receptor)
chain: TTACQEANYGALLRELCLTQFQVDMEAVGETLWCDWGRTIRSYRELADCTWHMAEKLGCFWPNAEVDRFFLAVHGRYFRSCPISGRAVGSAGSAGSAIEPKPFLYVVGRKKMMDAQYKCYDRMQQLPAYQGEGPYCNRTWDGWLCWDDTPAGVLSYQFCPEYFPDFDPSEKVTKYCDEKGVWFKHPENNRTWSNYTMCNAFTPEK
modifications: N-glycosylated (sites not given)
B6: amylin receptor 1 extracellular domain with calcitonin receptor E123A (hRAMP1.24–111-(GSA)3-hCTR.34–141.E123A-H6) (receptor)
chain: TTACQEANYGALLRELCLTQFQVDMEAVGETLWCDWGRTIRSYRELADCTWHMAEKLGCFWPNAEVDRFFLAVHGRYFRSCPISGRAVGSAGSAGSAIEPKPFLYVVGRKKMMDAQYKCYDRMQQLPAYQGEGPYCNRTWDGWLCWDDTPAGVLSYQFCPDYFPDFDPSEKVTKYCDEKGVWFKHPANNRTWSNYTMCNAFTPEK
modifications: N-glycosylated (sites not given)
B7: amylin receptor 1 extracellular domain with calcitonin receptor N124D (hRAMP1.24–111-(GSA)3-hCTR.34–141.N124D-H6) (receptor)
chain: TTACQEANYGALLRELCLTQFQVDMEAVGETLWCDWGRTIRSYRELADCTWHMAEKLGCFWPNAEVDRFFLAVHGRYFRSCPISGRAVGSAGSAGSAIEPKPFLYVVGRKKMMDAQYKCYDRMQQLPAYQGEGPYCNRTWDGWLCWDDTPAGVLSYQFCPDYFPDFDPSEKVTKYCDEKGVWFKHPEDNRTWSNYTMCNAFTPEK
modifications: N-glycosylated (sites not given)

Assays:
Assay in all cases: fluorescence polarisation; saturation binding format; 10 nM FITC-labeled peptide probe, purified receptor ECD at rising concentrations; 1 h at room temperature; anisotropy; mean pKD of at least three independent experiments
Conditions in all cases: both partners purified
[1] = biological target: T1, FITC-labeled salmon calcitonin (sCT) fragment(22–32) (salmon, fluorescein isothiocyanate (FITC) label, position not stated)
T1 construct: salmon calcitonin, residues 22-32 (11 amino acids); numbers count on: the mature 32-residue hormone; probably FITC at the N-terminus and a C-terminal amide, neither stated for this peptide; also called FITC-sCT(22–32); sCT(22–32); source: synthetic peptide (custom-synthesized, Genscript, HPLC-purified)

[2] = biological target: T2, FITC-labeled AC413(6–25) with Y25P mutation (fluorescein isothiocyanate (FITC) on the N-terminus)
T2 construct: AC413, an antagonist amylin analog, residues 6-25 (20 amino acids) with Y25P; also called FITC-AC413(6–25) Y25P; AC413(6–25) Y25P; source: synthetic peptide (custom-synthesized, Genscript, HPLC-purified)

[3] = biological target: T1, FITC-labeled salmon calcitonin (sCT) …; remark: listed apart in the source

Binder	Kd [1] [nM]	pKD [1]	Kd [2] [nM]	pKD [2]	fold decrease of affinity against the wild type [3] [fold]
B1	81	7.09	57	7.24	
B2	548	6.26	62	7.21	
B3			467	6.33	> 10
B4	53	7.28	136	6.87	
B5	161	6.79	81	7.09	
B6	365	6.44	129	6.89	
B7	52	7.29	822	6.09	
